According to patent US20030166014A1 (CURATORS OF THE UNIVERSITY OF MISSOURI, published 2003):

Key:
[1] = target: T1, Maackia amurensis lectin (MAL) (Maackia amurensis); experiment: lectin ELISA; slope of absorbance at 405 nm against ng Hp
T1 construct: Used at 10 µg/ml in the lectin ELISA

[2] = target: T2, Lotus tetragonolobus lectin (LTL) (Lotus tetragonolobus, UniProt P19664 1-240); experiment: as above
T2 construct: Used at 2 µg/ml in the lectin ELISA
T2 sequence (looked up): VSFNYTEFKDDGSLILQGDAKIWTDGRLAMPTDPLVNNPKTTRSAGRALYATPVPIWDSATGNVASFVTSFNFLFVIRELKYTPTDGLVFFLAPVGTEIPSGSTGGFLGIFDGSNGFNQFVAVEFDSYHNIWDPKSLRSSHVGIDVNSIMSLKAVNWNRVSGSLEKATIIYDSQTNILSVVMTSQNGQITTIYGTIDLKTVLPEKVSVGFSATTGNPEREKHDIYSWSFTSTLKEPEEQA

T1 sequence (P0DKL3 30-278): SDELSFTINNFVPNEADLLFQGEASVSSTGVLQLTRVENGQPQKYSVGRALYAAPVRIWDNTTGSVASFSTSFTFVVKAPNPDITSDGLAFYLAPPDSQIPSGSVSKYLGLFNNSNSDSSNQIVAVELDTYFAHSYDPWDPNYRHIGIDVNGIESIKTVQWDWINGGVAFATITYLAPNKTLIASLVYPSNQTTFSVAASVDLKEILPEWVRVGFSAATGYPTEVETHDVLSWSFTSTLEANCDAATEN

B1: endometriosis-associated peritoneal endometriotic haptoglobin (pHp) (other, human)
chain 1: VDSGNDVTDIADDGCPKPPEIAHGYVEHSVRYQCKNYYKLRTEGDGVYTLNDKKQWINKAVGDKLPECEADDGCPKPPEIAHGYVEHSVRYQCKNYYKLRTEGDGVYTLNNEKQWINKAVGDKLPECEAVCGKPKNPANPVQ
chain 2: ILGGHLDAKGSFPWQAKMVSHHNLTTGATLINEQWLLTTAKNLFLNHSENATAKDIAPTLTLYVGKKQLVEIEKVVLHPNYSQVDIGLIKLKQKVSVNERVMPICLPSKDYAEVGRVGYVSGWGRNANFKFTDHLKYVMLPVADQDQCIRHYEGSTVPEKKTPKSPVGVQPILNEHTFCAGMSKYQEDTCYGDAGSAFAVHDLEEDTWYATGILSFDKSCAVAEYGVYVKVTSIQDWVQKTIAEN
modifications: N-glycosylated; 3 kDa less carbohydrate than sHp beta-chain; more alpha(2-3) sialic acid and fucose than sHp
notes: domain: α-subunit;domain: β-subunit; also called peritoneal endometriotic Hp
- fold binding relative to sHp [1]: 10 times (vs sHp)
- fold binding relative to sHp [2]: 11 times (vs sHp)
